Results published in patent US20150037868.
Changes are numbered by the printed parent chain.

Legend:
[1] = target: Pgi-HRV-I526 (Pgi with HRV 3C recognition sequence inserted after amino acid 526)
[2] = target: T1, TktA variant with HRV protease cleavage motif inserted after amino acid 638
T1 chain: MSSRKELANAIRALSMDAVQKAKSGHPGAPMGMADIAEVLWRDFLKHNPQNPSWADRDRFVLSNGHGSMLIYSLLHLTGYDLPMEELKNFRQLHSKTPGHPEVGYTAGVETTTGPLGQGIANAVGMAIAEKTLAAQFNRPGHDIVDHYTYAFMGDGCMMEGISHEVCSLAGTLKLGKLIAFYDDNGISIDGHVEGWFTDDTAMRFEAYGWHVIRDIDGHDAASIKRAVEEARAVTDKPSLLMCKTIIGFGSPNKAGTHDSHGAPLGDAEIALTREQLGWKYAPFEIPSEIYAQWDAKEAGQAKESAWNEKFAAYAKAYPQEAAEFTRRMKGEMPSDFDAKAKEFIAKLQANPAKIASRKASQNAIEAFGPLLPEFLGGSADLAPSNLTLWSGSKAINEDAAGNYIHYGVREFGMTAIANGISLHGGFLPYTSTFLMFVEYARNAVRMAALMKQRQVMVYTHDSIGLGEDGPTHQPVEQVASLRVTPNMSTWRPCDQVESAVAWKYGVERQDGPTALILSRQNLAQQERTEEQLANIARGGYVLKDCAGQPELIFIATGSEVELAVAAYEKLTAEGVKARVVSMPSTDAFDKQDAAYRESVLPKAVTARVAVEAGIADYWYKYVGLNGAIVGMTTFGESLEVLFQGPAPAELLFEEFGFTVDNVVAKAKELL

[3] = target: T2, TktA variant with HRV protease cleavage motif inserted after amino acid 640
T2 chain: T1 chain with L639A, E640P, V641L, L642E, F643V, Q644L, G645F, P646Q, A647G

[4] = target: T3, TktA variant with HRV protease cleavage motif inserted after amino acid 635
T3 chain: T1 chain with G636L, S638V, E640F, V641Q, L642G, F643P, Q644G, G645E, P646S

[5] = target: T4, TktA variant with HRV protease cleavage motif inserted after amino acid 636
T4 chain: T1 chain with E637L, S638E, L639V, E640L, V641F, L642Q, F643G, Q644P, G645E, P646S

[6] = target: T5, wild-type TktA protein (transketolase A of Escherichia coli)
T5 chain: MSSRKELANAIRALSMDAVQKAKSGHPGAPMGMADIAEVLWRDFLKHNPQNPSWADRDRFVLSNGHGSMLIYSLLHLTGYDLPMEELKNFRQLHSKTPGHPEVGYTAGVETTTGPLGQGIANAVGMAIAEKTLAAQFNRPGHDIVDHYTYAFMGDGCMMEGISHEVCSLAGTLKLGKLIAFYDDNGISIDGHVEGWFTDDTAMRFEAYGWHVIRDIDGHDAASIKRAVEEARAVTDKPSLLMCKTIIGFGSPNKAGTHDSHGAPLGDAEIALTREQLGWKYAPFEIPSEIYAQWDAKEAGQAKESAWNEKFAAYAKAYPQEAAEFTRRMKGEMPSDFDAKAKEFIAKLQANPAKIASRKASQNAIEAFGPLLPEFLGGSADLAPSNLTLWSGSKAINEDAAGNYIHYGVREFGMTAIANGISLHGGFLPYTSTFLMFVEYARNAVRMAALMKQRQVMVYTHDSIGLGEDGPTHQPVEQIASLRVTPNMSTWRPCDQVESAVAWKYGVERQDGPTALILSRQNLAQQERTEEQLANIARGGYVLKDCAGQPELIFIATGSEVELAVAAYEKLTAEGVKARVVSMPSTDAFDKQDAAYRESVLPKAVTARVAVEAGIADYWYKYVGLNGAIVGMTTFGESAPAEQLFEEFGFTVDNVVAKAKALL

[7] = target: T6, TktA variant with HRV protease cleavage motif inserted after amino acid 637
T6 chain: T1 chain with S638L, L639E, E640V, V641L, L642F, F643Q, Q644G, G645P, P646S

B1: HRV 3C protease (codon-optimized for expression in E. coli), cytoplasmic (protein)
chain: MGPEEEFGMSLIKHNSCVITTENGKFTGLGVYDRFVVVPTHADPGKEIQVDGITTKVIDSYDLYNKNGIKLEITVLKLDRNEKFRDIRRYIPNNEDDYPNCNLALLANQPEPTIINVGDVVSYGNILLSGNQTARMLKYSYPTKSGYCGGVLYKIGQVLGIHVGGNGRDGFSAMLLRSYFTDVQ
[1]
  Pgi activity in clarified lysate after 2 h IPTG induction of cytoplasmic HRV 3C protease (pGLC221, no OmpA leader); no-protease strain 1.3 (µmol/min/mg total protein): -0.01
[2]
  growth rate in minimal glucose medium, HRV protease +inducer (2% arabinose, pGLC217); -inducer value 0.13: 0.08
[3]
  growth rate in minimal glucose medium, HRV protease +inducer (2% arabinose, pGLC217); -inducer value 0.55: 0.34
[4]
  growth rate in minimal glucose medium, HRV protease +inducer (2% arabinose, pGLC217); -inducer value 0.58: 0.47
[5]
  growth rate in minimal glucose medium, HRV protease +inducer (2% arabinose, pGLC217); -inducer value 0.43: 0.17
[6]
  growth rate in minimal glucose medium, HRV protease +inducer (2% arabinose, pGLC217); -inducer value 0.60: 0.57
[7]
  growth rate in minimal glucose medium, HRV protease +inducer (2% arabinose, pGLC217); -inducer value 0.40: 0.11

B2: HRV 3C protease with an N-terminal OmpA leader sequence (periplasmic) (protein)
chain: GPEEEFGMSLIKHNSCVITTENGKFTGLGVYDRFVVVPTHADPGKEIQVDGITTKVIDSYDLYNKNGIKLEITVLKLDRNEKFRDIRRYIPNNEDDYPNCNLALLANQPEPTIINVGDVVSYGNILLSGNQTARMLKYSYPTKSGYCGGVLYKIGQVLGIHVGGNGRDGFSAMLLRSYFTDVQ
[1]
  Pgi activity in clarified lysate after 2 h IPTG induction of periplasmically sequestered HRV 3C protease (pGLC089, OmpA leader); no-protease strain 1.3 (µmol/min/mg total protein): 0.01

B3: tobacco etch virus (TEV) protease (protein)
chain: GESLFKGPRDYNPISSTICHLTNESDGHTTSLYGIGFGPFIITNKHLFRRNNGTLLVQSLHGVFKVKNTTTLQQHLIDGRDMIIIRMPKDFPPFPQKLKFREPQREERICLVTTNFQTKSMSSMVSDTSCTFPSSDGIFWKHWIQTKDGQCGSPLVSTRDGFIVGIHSASNFTNTNNYFTSVPKNFMELLTNQEAQQWVSGWRLNADSVLWGGHKVFMSKPEEPFQPVKEATQLMNELVYSQ
[2]
  growth rate in minimal glucose medium, TEV protease control +inducer (2% arabinose, pGLC219); -inducer value 0.18: 0.18
[3]
  growth rate in minimal glucose medium, TEV protease control +inducer (2% arabinose, pGLC219); -inducer value 0.48: 0.52
[4]
  growth rate in minimal glucose medium, TEV protease control +inducer (2% arabinose, pGLC219); -inducer value 0.52: 0.52
[5]
  growth rate in minimal glucose medium, TEV protease control +inducer (2% arabinose, pGLC219); -inducer value 0.39: 0.42
[6]
  growth rate in minimal glucose medium, TEV protease control +inducer (2% arabinose, pGLC219); -inducer value 0.55: 0.53
[7]
  growth rate in minimal glucose medium, TEV protease control +inducer (2% arabinose, pGLC219); -inducer value 0.46: 0.46
